Article PMC8847413 (Nature Communications, 2022)

Target: T1, recombinant RBD protein derived from the SARS-CoV-2 WT strain (SARS-CoV-2 wild type (Wuhan-Hu-1), UniProt P0DTC2)
T1 construct: also called WT-RBD; WT RBD
Assay: ELISA
Settings: both partners purified

B1: MAb 2H2 (antibody, V domains shown)
VH: QVQLKQSGPSLVQPSQSLSITCTVSGFSLTSYGVHWVRQSPGKGLEWLGVMWRGGNTDYNAAFMSRLSITKDNSKSQVFFKMNSLQTDDTAIYYCAKNGGAHAMDFWGQGTSVTVSS
VL: NIVLTQSPASLAVSLGQRATISCRASESVDSYGNSFLHWYQQKPGQPPKLLIYLASNLESGVPARFSGSGSRTDFTLTIDPVEADDAATYYCQQNNEDPFTFGSGTKLEIK
notes: copies: 2 + 2
- binding result: binds

B2: MAb 8D3 (IgG) (antibody, V domains shown)
VH: EVQLQQSGPELVKPGASVKISCKTSGYTFTEYTMYWVKQSHGKSLEWIGGINPNIGDTSYNQNFKGKATLTVDRSSSTAYMELRSLTSEDSAVYYCARDGYPYYYALDHWGQGTSVTVSS
VL: DIVMTQSQKFMSTSVGDRVSVTCKASQNVGTNVAWYQQKPGQSPKALIYSTSYRYSGVPDRFTGSGSGTDFTLTISNVQSEDLAEYFCQQYNSYPYTFGGGTKLEIK
notes: copies: 2 + 2
- binding result: binds

B3: MAb 3C1 (antibody, V domains shown)
VH: EVQLQESGPSLVKPSQTLSLTCSVTGDSITNGYWNWIRKFPGNKLEYMGYISYSGSTYYSPSLKSRISITRDTSKNQHYLQLNSVTSEDTATYYCASDYHGSKYYFDYWGQGTTLTVSS
VL: DIVMTQSHKFMSTSVGHRVSITCKASQDVGNDVAWYQQKPGQSPKLLIYWASTRHTGVPDRFTGSGSGTDFTLTISNVQSEDLADYFCQQYNRYPYTFGGGTKLEIK
notes: copies: 2 + 2
- binding result: binds
